The target of assay [1] is human GLP-1 receptor (hGLP1R) (human, UniProt P43220 24-463). Put plainly: cell-based or functional assay.
The target in assay [2] is human secretin receptor (hSCTR) (human, UniProt P47872 23-440). Put plainly: cell-based or functional assay.

This is an account of results in patent US20260201008A1, “SECRETIN-DERIVED GLP1R SELECTIVE AGONISTS” (GUBRA A/S, priority 2023, published 2026).

Numbered stars: 1 amine (or outer) side, 2 acyl side, 3 side chain; on linkers, the order of the positions; unused ones are H or OH. Square brackets hold non-standard residues; d marks the D form. Side chains are listed from the residue outwards. Ends that are not written are not given here. * marks the point of attachment. C20 diacid = O=C(O)CCCCCCCCCCCCCCCCCCC(=O)*; γGlu = O=C(O)[C@H](CCC(=O)[*:2])N[*:1]; AEEA = NCCOCCOCC(=O)O; Aib = CC(C)(N)C(=O)O

human secretin receptor (hSCTR), sequence (P47872 23-440): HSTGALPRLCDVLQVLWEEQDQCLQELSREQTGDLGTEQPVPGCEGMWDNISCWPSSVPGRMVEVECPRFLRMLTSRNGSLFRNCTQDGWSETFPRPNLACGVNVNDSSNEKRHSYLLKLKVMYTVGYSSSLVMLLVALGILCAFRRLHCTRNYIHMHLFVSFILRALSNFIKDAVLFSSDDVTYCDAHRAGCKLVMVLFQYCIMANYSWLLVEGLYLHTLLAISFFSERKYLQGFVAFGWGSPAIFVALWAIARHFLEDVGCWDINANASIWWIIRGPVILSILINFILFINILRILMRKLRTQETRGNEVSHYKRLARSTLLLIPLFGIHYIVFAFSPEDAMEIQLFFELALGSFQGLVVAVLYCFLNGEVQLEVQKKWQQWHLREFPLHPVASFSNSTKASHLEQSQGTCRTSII

B1: SEQ ID NO: 118 (peptide)
peptide: H[Aib]EGTFTSDISWLLEGAALQRFIQWLV-NH2
modifications: N-terminus assumed
SMILES: CC[C@H](C)[C@H](NC(=O)[C@H](Cc1ccccc1)NC(=O)[C@H](CCCNC(=N)N)NC(=O)[C@H](CCC(N)=O)NC(=O)[C@H](CC(C)C)NC(=O)[C@H](C)NC(=O)[C@H](C)NC(=O)CNC(=O)[C@H](CCC(=O)O)NC(=O)[C@H](CC(C)C)NC(=O)[C@H](CC(C)C)NC(=O)[C@H](Cc1c[nH]c2ccccc12)NC(=O)[C@H](CO)NC(=O)[C@@H](NC(=O)[C@H](CC(=O)O)NC(=O)[C@H](CO)NC(=O)[C@@H](NC(=O)[C@H](Cc1ccccc1)NC(=O)[C@@H](NC(=O)CNC(=O)[C@H](CCC(=O)O)NC(=O)C(C)(C)NC(=O)[C@@H](N)Cc1c[nH]cn1)[C@@H](C)O)[C@@H](C)O)[C@@H](C)CC)C(=O)N[C@@H](CCC(N)=O)C(=O)N[C@@H](Cc1c[nH]c2ccccc12)C(=O)N[C@@H](CC(C)C)C(=O)N[C@H](C(N)=O)C(C)C
With B1, the “pEC50 hGLPR1” value in assay [1] is 10.2 -log M. Moreover, the “pEC50 hSCTR” value in assay [2] was 7.1 -log M.

B2: SEQ ID NO: 122 (peptide)
peptide: H[Aib]EGTFTSDPSELLEGAALQRFIQWLV-NH2
modifications: N-terminus assumed
SMILES: CC[C@H](C)[C@H](NC(=O)[C@H](Cc1ccccc1)NC(=O)[C@H](CCCNC(=N)N)NC(=O)[C@H](CCC(N)=O)NC(=O)[C@H](CC(C)C)NC(=O)[C@H](C)NC(=O)[C@H](C)NC(=O)CNC(=O)[C@H](CCC(=O)O)NC(=O)[C@H](CC(C)C)NC(=O)[C@H](CC(C)C)NC(=O)[C@H](CCC(=O)O)NC(=O)[C@H](CO)NC(=O)[C@@H]1CCCN1C(=O)[C@H](CC(=O)O)NC(=O)[C@H](CO)NC(=O)[C@@H](NC(=O)[C@H](Cc1ccccc1)NC(=O)[C@@H](NC(=O)CNC(=O)[C@H](CCC(=O)O)NC(=O)C(C)(C)NC(=O)[C@@H](N)Cc1c[nH]cn1)[C@@H](C)O)[C@@H](C)O)C(=O)N[C@@H](CCC(N)=O)C(=O)N[C@@H](Cc1c[nH]c2ccccc12)C(=O)N[C@@H](CC(C)C)C(=O)N[C@H](C(N)=O)C(C)C
Consider B2, for which the “pEC50 hGLPR1” value in assay [1] was 8.2 -log M. The “pEC50 hSCTR” value in assay [2] was 5.3 -log M.
Take H[Aib]EGTFTSDPSYLKEEA[Aib]LQRFLEHLV-NH2 (not fully specified (residue 14)) [SEQ ID NO: 121]: the “pEC50 hGLPR1” value in assay [1] is 8.6 -log M. Further, the “pEC50 hSCTR” value in assay [2] is 4.4 -log M.

B3: SEQ ID NO: 115 (peptide)
peptide: H[Aib]EGTFTSDISRLLEGAALQRFIQWLV-NH2
modifications: N-terminus assumed
SMILES: CC[C@H](C)[C@H](NC(=O)[C@H](Cc1ccccc1)NC(=O)[C@H](CCCNC(=N)N)NC(=O)[C@H](CCC(N)=O)NC(=O)[C@H](CC(C)C)NC(=O)[C@H](C)NC(=O)[C@H](C)NC(=O)CNC(=O)[C@H](CCC(=O)O)NC(=O)[C@H](CC(C)C)NC(=O)[C@H](CC(C)C)NC(=O)[C@H](CCCNC(=N)N)NC(=O)[C@H](CO)NC(=O)[C@@H](NC(=O)[C@H](CC(=O)O)NC(=O)[C@H](CO)NC(=O)[C@@H](NC(=O)[C@H](Cc1ccccc1)NC(=O)[C@@H](NC(=O)CNC(=O)[C@H](CCC(=O)O)NC(=O)C(C)(C)NC(=O)[C@@H](N)Cc1c[nH]cn1)[C@@H](C)O)[C@@H](C)O)[C@@H](C)CC)C(=O)N[C@@H](CCC(N)=O)C(=O)N[C@@H](Cc1c[nH]c2ccccc12)C(=O)N[C@@H](CC(C)C)C(=O)N[C@H](C(N)=O)C(C)C
For B3, the “pEC50 hGLPR1” value in assay [1] is 10.4 -log M. In assay [2], the “pEC50 hSCTR” value is 7.8 -log M.

B4: SEQ ID NO: 117 (peptide)
peptide: H[Aib]EGTFTSDISFLLEGAALQRFIQWLV-NH2
modifications: N-terminus assumed
SMILES: CC[C@H](C)[C@H](NC(=O)[C@H](Cc1ccccc1)NC(=O)[C@H](CCCNC(=N)N)NC(=O)[C@H](CCC(N)=O)NC(=O)[C@H](CC(C)C)NC(=O)[C@H](C)NC(=O)[C@H](C)NC(=O)CNC(=O)[C@H](CCC(=O)O)NC(=O)[C@H](CC(C)C)NC(=O)[C@H](CC(C)C)NC(=O)[C@H](Cc1ccccc1)NC(=O)[C@H](CO)NC(=O)[C@@H](NC(=O)[C@H](CC(=O)O)NC(=O)[C@H](CO)NC(=O)[C@@H](NC(=O)[C@H](Cc1ccccc1)NC(=O)[C@@H](NC(=O)CNC(=O)[C@H](CCC(=O)O)NC(=O)C(C)(C)NC(=O)[C@@H](N)Cc1c[nH]cn1)[C@@H](C)O)[C@@H](C)O)[C@@H](C)CC)C(=O)N[C@@H](CCC(N)=O)C(=O)N[C@@H](Cc1c[nH]c2ccccc12)C(=O)N[C@@H](CC(C)C)C(=O)N[C@H](C(N)=O)C(C)C
As for B4, the “pEC50 hGLPR1” value in assay [1] is 11 -log M. Also, the “pEC50 hSCTR” value in assay [2] is 6.7 -log M.
H[Aib]EGTFTSDISYLK([AEEA-AEEA-γGlu-C20 diacid])EEA[Aib]LQRFLEHLV-NH2 (also: K14 lipid also given as C18DA[γE][OEG][OEG]-) [SEQ ID NO: 114]: the “pEC50 hGLPR1” value in assay [1] is 11 -log M. Also, the “pEC50 hSCTR” value in assay [2] was 7.4 -log M.

B5: SEQ ID NO: 113 (peptide)
peptide: H[Aib]EGTFTSDIS[Aib]LLEGAALQRFIQWLV-NH2
modifications: N-terminus assumed
SMILES: CC[C@H](C)[C@H](NC(=O)[C@H](Cc1ccccc1)NC(=O)[C@H](CCCNC(=N)N)NC(=O)[C@H](CCC(N)=O)NC(=O)[C@H](CC(C)C)NC(=O)[C@H](C)NC(=O)[C@H](C)NC(=O)CNC(=O)[C@H](CCC(=O)O)NC(=O)[C@H](CC(C)C)NC(=O)[C@H](CC(C)C)NC(=O)C(C)(C)NC(=O)[C@H](CO)NC(=O)[C@@H](NC(=O)[C@H](CC(=O)O)NC(=O)[C@H](CO)NC(=O)[C@@H](NC(=O)[C@H](Cc1ccccc1)NC(=O)[C@@H](NC(=O)CNC(=O)[C@H](CCC(=O)O)NC(=O)C(C)(C)NC(=O)[C@@H](N)Cc1c[nH]cn1)[C@@H](C)O)[C@@H](C)O)[C@@H](C)CC)C(=O)N[C@@H](CCC(N)=O)C(=O)N[C@@H](Cc1c[nH]c2ccccc12)C(=O)N[C@@H](CC(C)C)C(=O)N[C@H](C(N)=O)C(C)C
As for B5, in assay [1], the “pEC50 hGLPR1” value was 10.3 -log M. Further, the “pEC50 hSCTR” value in assay [2] was 7.1 -log M.

B6: SEQ ID NO: 120 (peptide)
peptide: H[Aib]EGTFTSDISGLLEGAALQRFIQWLV-NH2
modifications: N-terminus assumed
SMILES: CC[C@H](C)[C@H](NC(=O)[C@H](CC(=O)O)NC(=O)[C@H](CO)NC(=O)[C@@H](NC(=O)[C@H](Cc1ccccc1)NC(=O)[C@@H](NC(=O)CNC(=O)[C@H](CCC(=O)O)NC(=O)C(C)(C)NC(=O)[C@@H](N)Cc1c[nH]cn1)[C@@H](C)O)[C@@H](C)O)C(=O)N[C@@H](CO)C(=O)NCC(=O)N[C@@H](CC(C)C)C(=O)N[C@@H](CC(C)C)C(=O)N[C@@H](CCC(=O)O)C(=O)NCC(=O)N[C@@H](C)C(=O)N[C@@H](C)C(=O)N[C@@H](CC(C)C)C(=O)N[C@@H](CCC(N)=O)C(=O)N[C@@H](CCCNC(=N)N)C(=O)N[C@@H](Cc1ccccc1)C(=O)N[C@H](C(=O)N[C@@H](CCC(N)=O)C(=O)N[C@@H](Cc1c[nH]c2ccccc12)C(=O)N[C@@H](CC(C)C)C(=O)N[C@H](C(N)=O)C(C)C)[C@@H](C)CC
As for B6, the “pEC50 hGLPR1” value in assay [1] was 10.3 -log M. Moreover, the “pEC50 hSCTR” value in assay [2] is 6.7 -log M.

B7: SEQ ID NO: 119 (peptide)
peptide: H[Aib]EGTFTSDISELLEGAALQRFIQWLV-NH2
modifications: N-terminus assumed
SMILES: CC[C@H](C)[C@H](NC(=O)[C@H](Cc1ccccc1)NC(=O)[C@H](CCCNC(=N)N)NC(=O)[C@H](CCC(N)=O)NC(=O)[C@H](CC(C)C)NC(=O)[C@H](C)NC(=O)[C@H](C)NC(=O)CNC(=O)[C@H](CCC(=O)O)NC(=O)[C@H](CC(C)C)NC(=O)[C@H](CC(C)C)NC(=O)[C@H](CCC(=O)O)NC(=O)[C@H](CO)NC(=O)[C@@H](NC(=O)[C@H](CC(=O)O)NC(=O)[C@H](CO)NC(=O)[C@@H](NC(=O)[C@H](Cc1ccccc1)NC(=O)[C@@H](NC(=O)CNC(=O)[C@H](CCC(=O)O)NC(=O)C(C)(C)NC(=O)[C@@H](N)Cc1c[nH]cn1)[C@@H](C)O)[C@@H](C)O)[C@@H](C)CC)C(=O)N[C@@H](CCC(N)=O)C(=O)N[C@@H](Cc1c[nH]c2ccccc12)C(=O)N[C@@H](CC(C)C)C(=O)N[C@H](C(N)=O)C(C)C
As to B7, the “pEC50 hGLPR1” value in assay [1] is 10.6 -log M. Further, in assay [2], the “pEC50 hSCTR” value is 7.3 -log M.

B8: SEQ ID NO: 116 (peptide)
peptide: H[Aib]EGTFTSDISVLLEGAALQRFIQWLV-NH2
modifications: N-terminus assumed
SMILES: CC[C@H](C)[C@H](NC(=O)[C@H](Cc1ccccc1)NC(=O)[C@H](CCCNC(=N)N)NC(=O)[C@H](CCC(N)=O)NC(=O)[C@H](CC(C)C)NC(=O)[C@H](C)NC(=O)[C@H](C)NC(=O)CNC(=O)[C@H](CCC(=O)O)NC(=O)[C@H](CC(C)C)NC(=O)[C@H](CC(C)C)NC(=O)[C@@H](NC(=O)[C@H](CO)NC(=O)[C@@H](NC(=O)[C@H](CC(=O)O)NC(=O)[C@H](CO)NC(=O)[C@@H](NC(=O)[C@H](Cc1ccccc1)NC(=O)[C@@H](NC(=O)CNC(=O)[C@H](CCC(=O)O)NC(=O)C(C)(C)NC(=O)[C@@H](N)Cc1c[nH]cn1)[C@@H](C)O)[C@@H](C)O)[C@@H](C)CC)C(C)C)C(=O)N[C@@H](CCC(N)=O)C(=O)N[C@@H](Cc1c[nH]c2ccccc12)C(=O)N[C@@H](CC(C)C)C(=O)N[C@H](C(N)=O)C(C)C
For the molecule B8, in assay [1], the “pEC50 hGLPR1” value was 10.3 -log M. Further, the “pEC50 hSCTR” value in assay [2] was 7.1 -log M.
Turning to H[Aib]EGTFTSDVSELKELAASQRFLEHLV-NH2 (not fully specified (residue 14)) [SEQ ID NO: 12], the “pEC50 hGLPR1” value in assay [1] was 10.7 -log M. In assay [2], the “pEC50 hSCTR” value was 6.2 -log M.
